Laboratory results reported in publication PMC3897375, “Def1 Promotes the Degradation of Pol3 for Polymerase Exchange to Occur During DNA-Damage–Induced Mutagenesis in Saccharomyces cerevisiae” (PLoS Biology, 2014).

How the values were obtained:
[1] = target: T1, Pol31 (S. cerevisiae, UniProt P46957 1-487); test: pull-down; GST–Pol32 (3 µg) or GST immobilised on glutathione–Sepharose beads, incubated with purified Pol31 (5 µg) and Rev1 (3 µg) together, overnight on ice; 50 mM Tris/HCl pH 7.5, 150 mM NaCl, 1 mM EDTA, 1 mM DTT, 10% glycerol, 0.01% Nonidet P-40; five washes, elution with 20 mM glutathione, SDS-PAGE; settings: both partners purified
T1 construct: Pol31, noncatalytic subunit of DNA polymerase delta, S. cerevisiae; also called purified Pol31; source: S. cerevisiae BJ5464, overexpressed, purified on glutathione–Sepharose 4B beads, eluted by PreScission protease cleavage; not shown: GST, N-terminal, cleaved
T1 sequence (looked up): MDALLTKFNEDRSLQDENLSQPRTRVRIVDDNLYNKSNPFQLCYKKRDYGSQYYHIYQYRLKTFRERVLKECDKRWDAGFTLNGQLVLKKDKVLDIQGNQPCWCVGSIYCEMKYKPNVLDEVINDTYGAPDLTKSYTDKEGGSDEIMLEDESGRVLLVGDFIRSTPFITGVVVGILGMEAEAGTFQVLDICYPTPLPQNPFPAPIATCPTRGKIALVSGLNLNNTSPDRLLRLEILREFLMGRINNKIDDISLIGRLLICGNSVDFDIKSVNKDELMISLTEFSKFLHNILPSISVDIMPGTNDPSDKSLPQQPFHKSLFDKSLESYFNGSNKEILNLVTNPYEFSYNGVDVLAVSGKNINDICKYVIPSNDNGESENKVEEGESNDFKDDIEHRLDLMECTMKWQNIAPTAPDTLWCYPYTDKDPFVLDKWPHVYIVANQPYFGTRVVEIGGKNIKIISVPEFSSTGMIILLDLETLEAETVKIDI

[2] = target: T2, Rev1 (S. cerevisiae, UniProt P12689 1-985); test: as above; settings: both partners purified
T2 construct: Rev1, translesion synthesis DNA polymerase, S. cerevisiae; also called TLS polymerase Rev1; purified Rev1; source: S. cerevisiae BJ5464, overexpressed, purified on glutathione–Sepharose 4B beads, eluted by PreScission protease cleavage; not shown: GST, N-terminal, cleaved
T2 sequence (looked up): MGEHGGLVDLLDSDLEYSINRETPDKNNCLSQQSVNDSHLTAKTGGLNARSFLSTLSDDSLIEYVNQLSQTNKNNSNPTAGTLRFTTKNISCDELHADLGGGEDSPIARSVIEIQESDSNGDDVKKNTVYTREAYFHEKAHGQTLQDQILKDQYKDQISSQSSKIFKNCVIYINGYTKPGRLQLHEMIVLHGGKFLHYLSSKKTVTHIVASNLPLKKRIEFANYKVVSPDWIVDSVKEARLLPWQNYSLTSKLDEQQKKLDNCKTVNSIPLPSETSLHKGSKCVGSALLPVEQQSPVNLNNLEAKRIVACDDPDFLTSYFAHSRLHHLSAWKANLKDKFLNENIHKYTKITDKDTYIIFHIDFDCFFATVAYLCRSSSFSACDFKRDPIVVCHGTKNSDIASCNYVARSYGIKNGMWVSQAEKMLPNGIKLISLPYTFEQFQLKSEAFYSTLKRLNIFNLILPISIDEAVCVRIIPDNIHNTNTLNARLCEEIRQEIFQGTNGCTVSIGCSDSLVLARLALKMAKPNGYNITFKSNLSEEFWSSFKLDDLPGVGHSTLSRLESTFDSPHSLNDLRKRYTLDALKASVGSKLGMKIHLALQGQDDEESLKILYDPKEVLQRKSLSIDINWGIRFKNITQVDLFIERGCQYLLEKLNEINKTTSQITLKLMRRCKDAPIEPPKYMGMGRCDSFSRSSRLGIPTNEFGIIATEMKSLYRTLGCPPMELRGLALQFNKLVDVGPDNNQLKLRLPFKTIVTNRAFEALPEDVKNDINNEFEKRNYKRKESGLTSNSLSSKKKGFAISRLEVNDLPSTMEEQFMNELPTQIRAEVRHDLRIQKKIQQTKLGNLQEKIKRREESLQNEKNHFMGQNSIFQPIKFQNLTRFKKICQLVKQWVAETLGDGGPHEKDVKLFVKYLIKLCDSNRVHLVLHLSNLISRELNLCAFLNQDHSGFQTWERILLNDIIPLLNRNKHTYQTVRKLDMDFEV

binding result [1]: binds
binding result [2]: binds
B1: GST–Pol32 (natural protein, S. cerevisiae, UniProt P47110 1-350, looked up)
chain: MDQKASYFINEKLFTEVKPVLFTDLIHHLKIGPSMAKKLMFDYYKQTTNAKYNCVVICCYKDQTIKIIHDLSNIPQQDSIIDCFIYAFNPMDSFIPYYDIIDQKDCLTIKNSYELKVSESSKIIERTKTLEEKSKPLVRPTARSKTTPEETTGRKSKSKDMGLRSTALLAKMKKDRDDKETSRQNELRKRKEENLQKINKQNPEREAQMKELNNLFVEDDLDTEEVNGGSKPNSPKETDSNDKDKNNDDLEDLLETTAEDSLMDVPKIQQTKPSETEHSKEPKSEEEPSSFIDEDGYIVTKRPATSTPPRKPSPVVKRALSSSKKQETPSSNKRLKKQGTLESFFKRKAK
notes: Pol32, noncatalytic subunit of DNA polymerase delta, S. cerevisiae; source: S. cerevisiae BJ5464, overexpressed, purified on glutathione–Sepharose 4B beads; not shown: GST, N-terminal, kept
